We go through one molecule from patent US9217013B2, “Treatment of amyloidoses using myelin basic protein and fragments thereof” (The Research Foundation for the State University of New York, priority 2008, dated 2015).

The target in data set [1] is Dutch/Iowa CAA mutant Aβ40 (Aβ40DI) (Homo sapiens, UniProt P05067, D694N/E693Q). Kind of data set: Surface plasmon resonance binding to immobilized Dutch/Iowa Aβ40. As for the experimental part:
All runs were performed on a Biacore 2000 instrument using 10 mM HEPES (pH 7.4), 150 mM NaCl, 3 mM EDTA, and 0.005% (v/v) Tween 20 as running buffer and diluent. Streptavidiri was conjugated to the surface of three flow cells of a CM5 chip at 10 μl/min using amine coupling chemistry to a final average response level of 1890.2 response units. N-terminally biotinylated Aβ peptides were resuspended in Me2SO to 2.5 mM and serially diluted to 13 nM immediately before application. Biotinylated Aβ40WT and Aβ40DI were bound to individual flow cells at 10 μl/min to achieve an average relative response level of 157.1 response units, leaving flow cell 1 as reference. […] The resultant Rmax of these surfaces was ˜700 response units with MBP as analyte. Purified MBP was passed over all four flow cells at 5, 10, 25, 50, and 100 nM at a flow rate of 30 μl/min for kinetic measurements. […] Surfaces were regenerated with 0.2 M glycine (pH 2.0) and 150 mM NaCl between runs. The resulting sensorgrams were analyzed by BIAanalysis software. Triplicate concentration series were used for each surface.
Using recombinant methodology to express and purify regions of the 18.5 kDa human MBP protein and test their abilities to bind Aβ and inhibit fibrillogenesis, cDNAs were prepared for the following regions of MBP shown in FIG. 3. The cDNAs for MBP fragments were cloned into pTYB11 plasmids containing an ampr gene and transformed into competent E. coli BL21 DE3 cells. Expression of cDNAs in this vector results in a fusion protein containing a chitin binding domain (CBD) as well as a self-cleavable intein protein from S. cerevisiae. CBD-Intein-MBP fusion proteins were captured on chitin beads from the resulting cell lysates. MBP protein fragments were eluted by inducing the cleavage between the C-terminus of the intein and the N-terminus of MBP by exposure to dithiothreitol. […] MBP was further purified by cation exchange chromatography on CM52 resin, resulting in a >95% pure protein preparations. Each of the four MBP fragments were tested for binding to Dutch/Iowa Aβ40 and wild-type Aβ42 by surface plasmon resonance (FIG. 4).
In general terms: In SPR one partner is held on a chip, and binding of the other changes the refractive index at the surface.

A further data set deals with Aβ42WT (Homo sapiens, UniProt P05067). Nature of the data set: Circular dichroism spectroscopy of Aβ42WT β-sheet formation. It counts as biochemical. As to conditions: MBP added to incubates, 37° C. The text has this:
Aβ42 (□), MBP (□), Aβ42 with MBP (□).
The formation of β-sheet fibrils may be evaluated by circular dichroism (“CD”) spectroscopy. The technique is based on circularly polarized light. The secondary structure of proteins tends to “distort” the polarization toward the elliptical. The degree and direction of the distortion over a range of wavelengths produces spectra that are characteristic of the protein under examination and its secondary structure. One such method, suitable for use in embodiments of the present invention, is summarized below:
Preferably, purified protein is placed in detergent-free, low-salt buffer in a cuvette having a lightpath length on the order of 1 mm. The optimal concentration of the protein may be determined by standard techniques well-known in the art, and confirmed by comparing the spectrum over a range of concentrations, using an instrument (e.g., JASCO) and cuvette properly calibrated with a standard such as d-10-camphorsulfonic acid in water. To acquire a CD spectrum, the sample is scanned over a wavelength range of about 180-260 nm (spectral width approx. 1 nm). A suitable scan rate is of the order of 100 nm/min for a response time of about 2 seconds. Preferably, however, slower scan speeds (e.g., 5 nm/min, response time around 20 seconds) are used to reduce noise.

A further data set has as its target Aβ40WT (Homo sapiens, UniProt P05067). Nature of the data set: Co-immunoprecipitation of MBP with Aβ40WT. It counts as binding. As to conditions: purified MBP. The protocol:
AP peptides were resuspended in Me2SO to 2.5 mM and used at 10.8 μM. MBP was used at 1.56 μM. Proteins were combined in 250 μl of incubation buffer (PBS, 0.05% Tween 20, and 1% BSA). Anti-MBP mAb 382 was added to each sample mixture and incubated for 1 h at 4° C. with rocking. After incubation, 20 μl of washed GammaBind protein G-Sepharose beads (Amersham Biosciences) were added to each mixture, followed by incubation for an additional 1 h at 4° C. with rocking. Beads were separated by centrifugation at 8000×g for 2 min. Supernatants were removed, and beads were washed with 1 ml of incubation buffer. Separation and washing were repeated three times. A final wash was performed in PBS and 0.05% Tween 20 to remove excess BSA. Centrifuged beads were combined with 25 μl of reducing SDS-PAGE loading buffer and heated as described above. 10 μl of each sample/loading buffer mixture was loaded onto 10-20% Tricine gels (Invitrogen) and electrophoresed at 125 V for 35 min. Immunoblotting was carried out as described above using either biotinylated anti-MBP mAb 384 or biotinylated anti-Aβ mAb 3D6 as primary antibody. Experiments were performed in triplicate.

B1: myelin basic protein (protein)
chain: ASQKRPSQRHGSKYLATASTMDHARHGFLPRHRDTGILDSIGRFFGGDRGAPKRGSGKDSHHPARTAHYGSLPQKSHGRTQDENPVVHFFKNIVTPRTPPPSQGKGRGLSLSRFSWGAEGQRPGFGYGGRASDYKSAHKGFKGVDAQGTLSKIFKLGGRDSRSGSPMARR
notes: myelin basic protein, major form about 18.5 Kd (170 residues); purified protein
As to B1, the “binding to Dutch/Iowa CAA mutant Aβ relative to wild-type Aβ” value in data set [1] (SPR) is listed as “bound more tightly”. Moreover, binding in data set [1] (surface plasmon resonance) was characterised by a dissociation constant (Kd) of 16.9 nM. In addition, the “Aβ42WT fibril formation by circular dichroism” value with Aβ42WT is on record as “prevents fibril formation”. Moreover, the binding by immunoprecipitation entry in the data set with Aβ40WT is “bound”.
